Non-standard residues stand in square brackets, D forms with d. No end group written: not given here. Cit = NC(=O)NCCC[C@H](N)C(=O)O
Experiments:
CFC-1 [1] = target: T1, CFC-1; assay: ELISA, Ab 2 ug/well
T1 construct: Positive control for anti-citrulline reactivity; also called cfc1 XG; Cfc1-peptide
Description: (§1) Biotin and citrulline-containing peptides derived from histone 2A were immobilized on NEUTRAVIDIN®-coated 96-well ELISA plates (0.3 μg/well). CFC-1 and CFC-0 were coated at the same concentration and served as positive and negative controls, respectively, for specific anti-citrulline reactivity and as coating controls. Non-coated wells were used to test for aspecific binding of the antibodies. […] Detection of bound anti-citrulline antibodies was performed by incubating the wells with rabbit anti-human HRP (1:2000) for 1 hour at RT followed by incubation with TMB substrate. The resulting OD (y-axis) is a measure for antibody binding.

[2] = target: T2, peptide no. 1 (human histone 2A) (human, also: biotin-labelled); assay: ELISA, Ab 2 ug/well
T2 construct: also called peptide 1; AAASGXGKQGGK
T2 peptide: AAASG[Cit]GKQGGK
Description: as §1

[3] = target: T3, peptide no. 2 (human histone 2A) (human, also: biotin-labelled); assay: ELISA, Ab 2 ug/well
T3 construct: also called peptide 2
T3 peptide: AKAKS[Cit]SSRAGL
Description: as §1

[4] = target: T4, peptide no. 3 (human histone 2A) (human, also: biotin-labelled); assay: ELISA, Ab 2 ug/well
T4 construct: also called peptide 3
T4 peptide: KSRSS[Cit]AGLQFP
Description: as §1

[5] = target: T5, peptide no. 4 (human histone 2A) (human, also: biotin-labelled); assay: ELISA, Ab 2 ug/well
T5 construct: also called peptide 4
T5 peptide: QFPVG[Cit]VHRLLR
Description: as §1

[6] = target: T6, peptide no. 5 (human histone 2A) (human, also: biotin-labelled); assay: ELISA, Ab 2 ug/well
T6 construct: also called peptide 5
T6 peptide: VGRVH[Cit]LLRKGN
Description: as §1

[7] = target: T7, peptide no. 6 (human histone 2A) (human, also: biotin-labelled); assay: ELISA, Ab 2 ug/well
T7 construct: also called peptide 6
T7 peptide: VHRLL[Cit]KGNYSE
Description: as §1

[8] = target: T8, peptide no. 7 (human histone 2A) (human, also: biotin-labelled); assay: ELISA, Ab 2 ug/well
T8 construct: also called peptide 7
T8 peptide: GNYSE[Cit]VGAGAP
Description: as §1

[9] = target: T9, peptide no. 8 (human histone 2A) (human, also: biotin-labelled); assay: ELISA, Ab 2 ug/well
T9 construct: also called peptide 8
T9 peptide: AGNAA[Cit]DNKKTR
Description: as §1

[10] = target: T10, peptide no. 9 (human histone 2A) (human, also: biotin-labelled); assay: ELISA, Ab 2 ug/well
T10 construct: also called peptide 9
T10 peptide: DNKKT[Cit]IIPRHL
Description: as §1

[11] = target: T11, peptide no. 10 (human histone 2A) (human, also: biotin-labelled); assay: ELISA, Ab 2 ug/well
T11 construct: also called peptide 10
T11 peptide: TRIIP[Cit]HLQLAI
Description: as §1

[12] = target: T12, peptide no. 11 (human histone 2A) (human, also: biotin-labelled); assay: ELISA, Ab 2 ug/well
T12 construct: also called peptide 11
T12 peptide: LQLAI[Cit]NDEELN
Description: as §1

[13] = target: T13, peptide no. 12 (human histone 2A) (human, also: biotin-labelled); assay: ELISA, Ab 2 ug/well
T13 construct: also called peptide 12
T13 peptide: NKLLG[Cit]VTIAQG
Description: as §1

CFC-1 [14] = target: T1, CFC-1; assay: ELISA, Ab 0.0032 ug/well
Description: as §1

[15] = target: T2, peptide no. 1 (human histone 2A); assay: ELISA, Ab 0.0032 ug/well
Description: as §1

[16] = target: T5, peptide no. 4 (human histone 2A); assay: ELISA, Ab 0.0032 ug/well
Description: as §1

[17] = target: T8, peptide no. 7 (human histone 2A); assay: ELISA, Ab 0.0032 ug/well
Description: as §1

[18] = target: T9, peptide no. 8 (human histone 2A); assay: ELISA, Ab 0.0032 ug/well
Description: as §1

[19] = target: T11, peptide no. 10 (human histone 2A); assay: ELISA, Ab 0.0032 ug/well
Description: as §1

[20] = target: T12, peptide no. 11 (human histone 2A); assay: ELISA, Ab 0.0032 ug/well
Description: as §1

[21] = target: T13, peptide no. 12 (human histone 2A); assay: ELISA, Ab 0.0032 ug/well
Description: as §1

CFC-1 [22] = target: T1, CFC-1; assay: ELISA, Ab 0.00064 ug/well
Description: as §1, with “fibrinogen and vimentin” for “histone 2A”
(§2) Biotin-labeled and citrulline-containing fibrinogen and vimentin peptides (Table 5) were also tested for reactivity with the therapeutic antibodies. Peptides were coated on 96-well NEUTRAVIDIN®-ELISA plates.

msFibα XH = target: T14, msFibα XH (mouse, X at position 15 = citrulline; biotin-labelled); assay: ELISA, Ab 0.00064 ug/well
T14 peptide: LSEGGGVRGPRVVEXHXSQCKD
Description: as §1, with “fibrinogen and vimentin” for “histone 2A”
as §2

msFibα XG = target: T15, msFibα XG (mouse, X at position 8 = citrulline; biotin-labelled); assay: ELISA, Ab 0.00064 ug/well
T15 peptide: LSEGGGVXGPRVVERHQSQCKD
Description: as §1, with “fibrinogen and vimentin” for “histone 2A”
as §2

huFibα XH = target: T16, huFibα XH (human, X at position 15 = citrulline; biotin-labelled); assay: ELISA, Ab 0.00064 ug/well
T16 peptide: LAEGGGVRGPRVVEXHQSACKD
Description: as §1, with “fibrinogen and vimentin” for “histone 2A”
as §2

huFibα XG = target: T17, huFibα XG (human, X at position 8 = citrulline; biotin-labelled); assay: ELISA, Ab 0.00064 ug/well
T17 peptide: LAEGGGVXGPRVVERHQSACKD
Description: as §1, with “fibrinogen and vimentin” for “histone 2A”
as §2

msFibβ XG = target: T18, msFibβ XG (mouse, also: biotin-labelled); assay: ELISA, Ab 0.00064 ug/well
T18 construct: also called mouse fibrinogen β peptide
T18 peptide: EPTDSLDA[Cit]GHRPVDRR
Description: as §1, with “fibrinogen and vimentin” for “histone 2A”
as §2

msVim XS/XL = target: T19, msVim XS/XL (mouse, also: biotin-labelled); assay: ELISA, Ab 0.00064 ug/well
T19 construct: also called mouse vimentin peptide
T19 peptide: YVT[Cit]SSAV[Cit]L[Cit]SSVP
Description: as §1, with “fibrinogen and vimentin” for “histone 2A”
as §2

B1: RhmAb2.102 (antibody, human IgG1, lambda)
heavy: not shown
light: QSVLTQPPSMSAAPGQKVTISCSGSSSNIGNNYVSWYQQVPGTAPKLLIYDDNKRPSGIPGRFSGSKSATSATLGITGLQAGDEADYYCGSWDDNLSVVLFGGGTKLTVLGQPKAAPSVTLFPPSSEELQANKATLVCLISDFYPGAVTVAWKADSSPVKAGVETTTPSKQSNNKYAASSYLSLTPEQWKSHRSYSCQVTHEGSTVEKTVAPTECS
notes: Human IgG1 lambda; also called Rhm2.102
CFC-1 [1]
  OD: 3.21 OD450
[2]
  OD: 3.05 OD450
[3]
  OD: 0.27 OD450
[4]
  OD: 0.286 OD450
[5]
  OD: 1.3 OD450
[6]
  OD: 0.111 OD450
[7]
  OD: 0.752 OD450
[8]
  OD: 0.059 OD450
[9]
  OD: 0.06 OD450
[10]
  OD: 0.063 OD450
[11]
  OD: 0.07 OD450
[12]
  OD: 0.067 OD450
[13]
  OD: 0.067 OD450
CFC-1 [14]
  OD: 0.916 OD450
[15]
  OD: 0.3 OD450
[16]
  OD: 0.078 OD450
[17]
  OD: 0.064 OD450
[18]
  OD: 0.06 OD450
[19]
  OD: 0.068 OD450
[20]
  OD: 0.057 OD450
[21]
  OD: 0.059 OD450
CFC-1 [22]
  OD: 0.345 OD450
msFibα XH
  OD: 0.088 OD450
msFibα XG
  OD: 0.116 OD450
huFibα XH
  OD: 0.124 OD450
huFibα XG
  OD: 0.125 OD450
msFibβ XG
  OD: 0.133 OD450
msVim XS/XL
  OD: 0.154 OD450

Source: patent US20150307603A1 (MODIQUEST B V, published 2015)
